Earlier results as cited in paper PMC3556358.

Biological target: insulin receptor (Homo sapiens) (UniProt P06213)
Sequence of UniProt P06213 (P06213 763-1382): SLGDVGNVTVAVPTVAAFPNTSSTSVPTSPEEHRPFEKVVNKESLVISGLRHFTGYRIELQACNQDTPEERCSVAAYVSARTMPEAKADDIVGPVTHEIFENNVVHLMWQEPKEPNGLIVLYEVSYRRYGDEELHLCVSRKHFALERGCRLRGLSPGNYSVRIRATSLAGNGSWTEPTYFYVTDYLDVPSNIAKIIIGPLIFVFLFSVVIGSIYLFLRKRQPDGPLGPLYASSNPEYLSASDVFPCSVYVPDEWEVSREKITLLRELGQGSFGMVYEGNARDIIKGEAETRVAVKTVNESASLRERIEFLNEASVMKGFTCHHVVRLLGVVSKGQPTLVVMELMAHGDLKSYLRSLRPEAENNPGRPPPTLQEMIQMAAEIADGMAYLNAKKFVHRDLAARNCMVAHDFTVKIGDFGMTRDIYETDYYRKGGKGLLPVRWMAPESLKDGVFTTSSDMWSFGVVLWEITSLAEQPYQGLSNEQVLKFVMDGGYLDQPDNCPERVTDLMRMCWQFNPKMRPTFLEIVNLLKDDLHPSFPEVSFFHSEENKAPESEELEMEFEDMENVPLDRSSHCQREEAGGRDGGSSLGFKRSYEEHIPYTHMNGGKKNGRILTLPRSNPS

Sequence of insulin (P01308 90-110): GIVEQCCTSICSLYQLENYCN

- Kd: 0.3 nM
Substance: insulin (from UniProt P01308)
